Test results published in PMC6272748, “Cysteine Specific Targeting of the Functionally Distinct Peroxiredoxin and Glutaredoxin Proteins by the Investigational Disulfide BNP7787” (Molecules, 2015).

Target: the molecule itself
Experiment: crystal structure; co-crystal of BNP7787-modified Prx 4 from 1.6 M ammonium sulfate, 0.1 M MES pH 6.5, 10% dioxane; 2.3 Å, space group C2; five molecules in the asymmetric unit, decamer generated by crystal symmetry

B1: human peroxiredoxin 4 (Prx 4) carrying a BNP7787-derived mesna adduct (enzyme, UniProt Q13162 79-271, looked up)
chain: AKISKPAPYWEGTAVIDGEFKELKLTDYRGKYLVFFFYPLDFTFVCPTEIIAFGDRLEEFRSINTEVVACSVDSQFTHLAWINTPRRQGGLGPIRIPLLSDLTHQISKDYGVYLEDSGHTLRGLFIIDDKGILRQITLNDLPVGRSVDETLRLVQAFQYTDKHGEVCPAGWKPGSETIIPDPAGKLKYFDKLN
modifications: BNP7787-derived mesna mixed disulfide on Cys 124 (in all molecules of the decamer); whole protein mass spectrometry consistent with two mesna adducts, the second proposed on Cys 245 (not visible in the electron density)
notes: Peroxiredoxin 4, human, wild type; No density beyond residue 242 in the crystal; TEV cleavage is described only for Grx 1; also called Prx IV; BNP7787-modified Prx 4; source: E. coli BL21(RIPL), purified (Ni2+ IMAC, size exclusion), reduced with DTT, then incubated with 40 mM BNP7787; copies: 10
  stoichiometry N: 10
